Test results taken from IntAct's records for PubMed 29892012.

B1: Late cornified envelope protein 1B (Homo sapiens), Q5T7P3 (parent)
chain: MSCQQNQQQCQPPPKCIPKCPPKCLTPRCPPKCPPKCPPVSSCCSVSSGGCCGSSSGGSCGSSSGGCCSSGGGGCCLSHHRRRRSHCHRPQSSGCCSQPSGGSSCCGGGSGQHSGGCC
partner: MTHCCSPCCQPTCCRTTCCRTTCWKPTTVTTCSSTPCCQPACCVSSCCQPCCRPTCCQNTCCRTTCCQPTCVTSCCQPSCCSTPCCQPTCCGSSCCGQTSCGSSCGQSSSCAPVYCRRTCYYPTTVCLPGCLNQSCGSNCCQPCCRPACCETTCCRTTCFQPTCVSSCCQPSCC
B2: Atypical chemokine receptor 2 (Homo sapiens), O00590 (parent)
chain: MAATASPQPLATEDADSENSSFYYYDYLDEVAFMLCRKDAVVSFGKVFLPVFYSLIFVLGLSGNLLLLMVLLRYVPRRRMVEIYLLNLAISNLLFLVTLPFWGISVAWHWVFGSFLCKMVSTLYTINFYSGIFFISCMSLDKYLEIVHAQPYHRLRTRAKSLLLATIVWAVSLAVSIPDMVFVQTHENPKGVWNCHADFGGHGTIWKLFLRFQQNLLGFLLPLLAMIFFYSRIGCVLVRLRPAGQGRALKIAAALVVAFFVLWFPYNLTLFLHTLLDLQVFGNCEVSQHLDYALQVTESIAFLHCCFSPILYAFSSHRFRQYLKAFLAAVLGWHLAPGTAQASLSSCSESSILTAQEEMTGMNDLGERQSENYPNKEDVGNKSA
B3: E3 ubiquitin-protein ligase DZIP3 (Homo sapiens), Q86Y13 (parent)
chain: MDSLPDEFFVRHPAVEDQRKEETENKLEKSSGQLNKQENDIPTDLVPVNLLLEVKKLLNAINTLPKGVVPHIKKFLQEDFSFQTMQREVAANSQNGEEIVPALTLRFLITQLEAALRNIQAGNYTAHQINIGYYLTLLFLYGVALTERGKKEDYTEAENKFLVMKMMIQENEICENFMSLVYFGRGLLRCAQKRYNGGLLEFHKSLQEIGDKNDHWFDIDPTEDEDLPTTFKDLLNNFIKTTESNIMKQTICSYLDCERSCEADILKNTSYKGFFQLMCSKSCCVYFHKICWKKFKNLKYPGENDQSFSGKKCLKEGCTGDMVRMLQCDVPGIVKILFEVVRKDEYITIENLGASYRKLISLKITDTDIRPKISLKFNTKDEMPIFKLDYNYFYHLLHIIIISGTDIVRQIFDEAMPPPLLKKELLIHKNVLESYYNHLWTNHPLGGSWHLLYPPNKELPQSKQFDLCLLLALIKHLNVFPAPKKGWNMEPPSSDISKSADILRLCKYRDILLSEILMNGLTESQFNSIWKKVSDILLRLGMMQEDIDKVKENPIENISLDYHQLSVYLGIPVPEIIQRMLSCYQQGIALQSITGSQRIEIEELQNEEEELSPPLMEYNINVKSHPEIQFAEINKDGTSIPSESSTESLKDLQEVKSKQRKKKKTKNKKNKDSKEDQVPYVVEKEEQLRKEQANPHSVSRLIKDDASDVQEDSAMEDKFYSLDELHILDMIEQGSAGKVTTDYGETEKERLARQRQLYKLHYQCEDFKRQLRTVTFRWQENQMQIKKKDKIIASLNQQVAFGINKVSKLQRQIHAKDNEIKNLKEQLSMKRSQWEMEKHNLESTMKTYVSKLNAETSRALTAEVYFLQCRRDFGLLHLEQTEKECLNQLARVTHMAASNLESLQLKAAVDSWNAIVADVRNKIAFLRTQYNEQINKVKQGFALSTLPPVQLPPPPPSPEILMQQFLGRPLVKESFFRPILTVPQMPAVCPGVVSATGQPRAPLMTGIAWALPAPVGDAVPPSAGLRSDPSIMNWERITDRLKTAFPQQTRKELTDFLRKLKDAYGKSLSELTFDEIVCKISQFIDPKKSQSQGKSVSNVNCVSPSHSPSQPDAAQPPKPAWRPLTSQGPATWEGASNPDEEEEEEEPCVICHENLSPENLSVLPCAHKFHAQCIRPWLMQQGTCPTCRLHVLLPEEFPGHPSRQLPKI
partner: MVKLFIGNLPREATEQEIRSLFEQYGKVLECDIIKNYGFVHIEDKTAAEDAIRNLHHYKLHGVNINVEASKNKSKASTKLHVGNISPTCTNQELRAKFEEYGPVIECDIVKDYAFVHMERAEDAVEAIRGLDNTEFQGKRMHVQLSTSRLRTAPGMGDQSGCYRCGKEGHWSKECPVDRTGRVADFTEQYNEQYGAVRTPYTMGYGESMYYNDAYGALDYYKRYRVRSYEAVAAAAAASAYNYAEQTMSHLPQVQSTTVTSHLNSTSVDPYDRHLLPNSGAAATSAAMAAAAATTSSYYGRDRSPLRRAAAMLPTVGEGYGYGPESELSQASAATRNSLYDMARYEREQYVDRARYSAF
B4: Zinc finger and BTB domain-containing protein 49 (Homo sapiens), Q6ZSB9 (parent)
chain: MDPVATHSCHLLQQLHEQRIQGLLCDCMLVVKGVCFKAHKNVLAAFSQYFRSLFQNSSSQKNDVFHLDVKNVSGIGQILDFMYTSHLDLNQDNIQVMLDTAQCLQVQNVLSLCHTFLKSATVVQPPGMPCNSTLSLQSTLTPDATCVISENYPPHLLQECSADAQQNKTLDESHPHASPSVNRHHSAGEISKQAPDTSDGSCTELPFKQPNYYYKLRNFYSKQYHKHAAGPSQERVVEQPFAFSTSTDLTTVESQPCAVSHSECILESPEHLPSNFLAQPVNDSAPHPESDATCQQPVKQMRLKKAIHLKKLNFLKSQKYAEQVSEPKSDDGLTKRLESASKNTLEKASSQSAEEKESEEVVSCENFNCISETERPEDPAALEDQSQTLQSQRQYACELCGKPFKHPSNLELHKRSHTGEKPFECNICGKHFSQAGNLQTHLRRHSGEKPYICEICGKRFAASGDVQRHIIIHSGEKPHLCDICGRGFSNFSNLKEHKKTHTADKVFTCDECGKSFNMQRKLVKHRIRHTGERPYSCSACGKCFGGSGDLRRHVRTHTGEKPYTCEICNKCFTRSAVLRRHKKMHCKAGDESPDVLEELSQAIETSDLEKSQSSDSFSQDTSVTLMPVSVKLPVHPVENSVAEFDSHSGGSYCKLRSMIQPHGVSDQEKLSLDPGKLAKPQMQQTQPQAYAYSDVDTPAGGEPLQADGMAMIRSSLAALDNHGGDPLGSRASSTTYRNSEGQFFSSMTLWGLAMKTLQNENELDQ
partner: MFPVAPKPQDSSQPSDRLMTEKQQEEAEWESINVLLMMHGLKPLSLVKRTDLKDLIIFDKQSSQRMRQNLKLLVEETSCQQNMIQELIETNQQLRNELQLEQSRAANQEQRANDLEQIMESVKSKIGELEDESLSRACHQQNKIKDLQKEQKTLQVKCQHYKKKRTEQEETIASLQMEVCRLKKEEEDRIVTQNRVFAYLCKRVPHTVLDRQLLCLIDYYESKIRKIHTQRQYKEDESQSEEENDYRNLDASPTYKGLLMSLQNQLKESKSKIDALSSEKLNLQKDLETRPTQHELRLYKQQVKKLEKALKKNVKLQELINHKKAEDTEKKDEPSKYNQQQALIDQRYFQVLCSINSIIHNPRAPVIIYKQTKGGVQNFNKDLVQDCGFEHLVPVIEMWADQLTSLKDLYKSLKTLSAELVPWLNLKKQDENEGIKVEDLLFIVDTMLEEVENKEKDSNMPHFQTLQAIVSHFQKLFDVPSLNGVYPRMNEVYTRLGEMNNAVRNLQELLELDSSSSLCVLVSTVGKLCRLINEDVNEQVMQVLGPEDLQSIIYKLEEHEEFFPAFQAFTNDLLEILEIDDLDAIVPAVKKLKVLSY
B5: Histone-lysine N-methyltransferase SMYD1 (Homo sapiens), Q8NB12 (parent)
chain: MTIGRMENVEVFTAEGKGRGLKATKEFWAADIIFAERAYSAVVFDSLVNFVCHTCFKRQEKLHRCGQCKFAHYCDRTCQKDAWLNHKNECSAIKRYGKVPNENIRLAARIMWRVEREGTGLTEGCLVSVDDLQNHVEHFGEEEQKDLRVDVDTFLQYWPPQSQQFSMQYISHIFGVINCNGFTLSDQRGLQAVGVGIFPNLGLVNHDCWPNCTVIFNNGNHEAVKSMFHTQMRIELRALGKISEGEELTVSYIDFLNVSEERKRQLKKQYYFDCTCEHCQKKLKDDLFLGVKDNPKPSQEVVKEMIQFSKDTLEKIDKARSEGLYHEVVKLCRECLEKQEPVFADTNIYMLRMLSIVSEVLSYLQAFEEASFYARRMVDGYMKLYHPNNAQLGMAVMRAGLTNWHAGNIEVGHGMICKAYAILLVTHGPSHPITKDLEAMRVQTEMELRMFRQNEFMYYKMREAALNNQPMQVMAEPSNEPSPALFHKKQ
partner: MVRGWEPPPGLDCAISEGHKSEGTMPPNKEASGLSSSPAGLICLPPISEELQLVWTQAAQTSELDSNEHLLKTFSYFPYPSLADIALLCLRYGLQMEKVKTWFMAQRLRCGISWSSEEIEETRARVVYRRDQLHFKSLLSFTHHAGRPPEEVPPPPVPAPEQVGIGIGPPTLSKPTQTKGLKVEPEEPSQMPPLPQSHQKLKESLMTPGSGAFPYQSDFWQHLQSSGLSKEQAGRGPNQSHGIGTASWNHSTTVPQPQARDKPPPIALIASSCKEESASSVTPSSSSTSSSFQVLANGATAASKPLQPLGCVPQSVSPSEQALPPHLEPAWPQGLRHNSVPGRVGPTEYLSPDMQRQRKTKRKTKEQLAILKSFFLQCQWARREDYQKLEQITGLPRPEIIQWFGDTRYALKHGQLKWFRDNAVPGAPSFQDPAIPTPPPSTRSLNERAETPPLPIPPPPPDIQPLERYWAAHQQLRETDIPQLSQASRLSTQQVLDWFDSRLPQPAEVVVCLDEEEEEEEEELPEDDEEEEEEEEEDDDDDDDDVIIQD

Variants of: B1
Settings: with kra92_human KRTAP9-2, Q9BYQ4

Row | Variant | effect of a mutation on the interaction
1 | C16Y | disrupting interaction strength

Variants of: B2
Settings: with creb3_human CREB3, O43889
creb3_human CREB3, O43889, sequence (O43889 whole entry): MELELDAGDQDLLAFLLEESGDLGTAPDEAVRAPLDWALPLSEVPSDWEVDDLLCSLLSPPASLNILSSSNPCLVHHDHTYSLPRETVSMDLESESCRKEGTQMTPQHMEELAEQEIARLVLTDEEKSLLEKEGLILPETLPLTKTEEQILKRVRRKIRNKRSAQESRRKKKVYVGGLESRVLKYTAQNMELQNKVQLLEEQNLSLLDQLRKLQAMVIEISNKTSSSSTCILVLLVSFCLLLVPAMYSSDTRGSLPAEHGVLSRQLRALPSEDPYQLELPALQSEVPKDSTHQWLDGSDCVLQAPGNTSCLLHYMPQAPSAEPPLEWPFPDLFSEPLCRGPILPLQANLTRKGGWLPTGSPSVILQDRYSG

Row | Variant | effect of a mutation on the interaction
2 | V42M | with no effect

Variants of: B3
Settings: with rbm4b_human RBM4B

Row | Variant | effect of a mutation on the interaction
3 | M1032R | disrupting interaction strength

Variants of: B4
Settings: with cep70_human CEP70, Q8NHQ1

Row | Variant | effect of a mutation on the interaction
4 | D88V | with no effect

Variants of: B5
Settings: with homez_human HOMEZ

Row | Variant | effect of a mutation on the interaction
5 | Q443R | with no effect
